Assay results taken from patent publication US20150322128A1 (Sanofi, published 2015).
Where a chain is given by its changes, count along the chain named. Read-outs that look alike come from different tables or passages of the source. Numbered stars: 1 amine (or outer) side, 2 acyl side, 3 side chain; on linkers, the order of the positions; unused ones are H or OH. Square brackets hold non-standard residues; d marks the D form. Side chains are listed from the residue outwards. Ends that are not written are not given here. * marks the point of attachment. γGlu = O=C(O)[C@H](CCC(=O)[*:2])N[*:1]; Stearoyl = CCCCCCCCCCCCCCCCCC(=O)*; Palmitoyl = CCCCCCCCCCCCCCCC(=O)*; Aib = CC(C)(N)C(=O)O

T1: human GIP receptor (human, UniProt P48546 22-466)
T1 sequence (looked up): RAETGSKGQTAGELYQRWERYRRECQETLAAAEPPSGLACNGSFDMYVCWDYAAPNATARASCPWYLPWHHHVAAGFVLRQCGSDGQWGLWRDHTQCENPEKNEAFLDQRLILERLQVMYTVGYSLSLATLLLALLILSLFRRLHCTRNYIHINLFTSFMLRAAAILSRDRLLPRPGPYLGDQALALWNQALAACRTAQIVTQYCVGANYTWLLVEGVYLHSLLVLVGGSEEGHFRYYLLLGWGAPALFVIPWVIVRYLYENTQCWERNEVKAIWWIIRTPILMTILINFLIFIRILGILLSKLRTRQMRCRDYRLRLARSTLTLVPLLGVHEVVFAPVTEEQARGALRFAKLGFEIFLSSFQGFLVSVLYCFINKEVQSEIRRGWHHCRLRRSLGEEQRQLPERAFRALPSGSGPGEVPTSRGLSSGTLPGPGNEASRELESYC

B1: SEQ ID NO: 27 (peptide)
peptide: H[dS]HGTFTSDLSKQK([γGlu-γGlu-Palmitoyl])EEEAARLFIEWL[Aib]K[dA]GPSSGAPPPS-NH2
modifications: N-terminus assumed
SMILES: CCCCCCCCCCCCCCCC(=O)N[C@@H](CCC(=O)N[C@@H](CCC(=O)NCCCC[C@H](NC(=O)[C@H](CCC(N)=O)NC(=O)[C@H](CCCCN)NC(=O)[C@H](CO)NC(=O)[C@H](CC(C)C)NC(=O)[C@H](CC(=O)O)NC(=O)[C@H](CO)NC(=O)[C@@H](NC(=O)[C@H](Cc1ccccc1)NC(=O)[C@@H](NC(=O)CNC(=O)[C@H](Cc1c[nH]cn1)NC(=O)[C@@H](CO)NC(=O)[C@@H](N)Cc1c[nH]cn1)[C@@H](C)O)[C@@H](C)O)C(=O)N[C@@H](CCC(=O)O)C(=O)N[C@@H](CCC(=O)O)C(=O)N[C@@H](CCC(=O)O)C(=O)N[C@@H](C)C(=O)N[C@@H](C)C(=O)N[C@@H](CCCNC(=N)N)C(=O)N[C@@H](CC(C)C)C(=O)N[C@@H](Cc1ccccc1)C(=O)N[C@H](C(=O)N[C@@H](CCC(=O)O)C(=O)N[C@@H](Cc1c[nH]c2ccccc12)C(=O)N[C@@H](CC(C)C)C(=O)NC(C)(C)C(=O)N[C@@H](CCCCN)C(=O)N[C@H](C)C(=O)NCC(=O)N1CCC[C@H]1C(=O)N[C@@H](CO)C(=O)N[C@@H](CO)C(=O)NCC(=O)N[C@@H](C)C(=O)N1CCC[C@H]1C(=O)N1CCC[C@H]1C(=O)N1CCC[C@H]1C(=O)N[C@@H](CO)C(N)=O)[C@@H](C)CC)C(=O)O)C(=O)O
B2: SEQ ID NO: 12 (peptide)
peptide: HXQGTFTSDLSKQKDEEAARLFIEWLXAXGPSSGAPPPS
modifications: D-Ser at 2; Lys 14 side chain K(γE-γE-x53) = (S)-4-Carboxy-4-((S)-4-carboxy-4-hexadecanoylamino-butyrylamino)-butyryl-; Aib at 27; D-Ala at 29; C-terminal amide
B3: SEQ ID NO: 29 (peptide)
peptide: B2 peptide with Q3H, X27K, X29G
modifications: D-Ser at 2; Lys 14 side chain K(γE-γE-x53) = (S)-4-Carboxy-4-((S)-4-carboxy-4-hexadecanoylamino-butyrylamino)-butyryl-; C-terminal amide
B4: SEQ ID NO: 30 (peptide)
peptide: B2 peptide with Q3H, D15E, X27K, X29G
modifications: D-Ser at 2; Lys 14 side chain K(γE-γE-x53) = (S)-4-Carboxy-4-((S)-4-carboxy-4-hexadecanoylamino-butyrylamino)-butyryl-; C-terminal amide
B5: SEQ ID NO: 21 (peptide)
peptide: B2 peptide with X29G
modifications: D-Ser at 2; Lys 14 side chain K(AEEAc-AEEAc- E-x70) = (2-{2-[2-(2-{2-[(4S)-4-Carboxy-4-octadecanoylamino-butyrylamino]-ethoxy}-ethoxy)-acetylamino]-ethoxy}-ethoxy)-acetyl; Aib at 27; C-terminal amide
B6: SEQ ID NO: 20 (peptide)
peptide: B2 peptide with X29G
modifications: D-Ser at 2; Lys 14 side chain K(AEEAc-AEEAc- E-x53) = (2-{2-[2-(2-{2-[(4S)-4-Carboxy-4-hexadecanoylamino-butyrylamino]-ethoxy}-ethoxy)-acetylamino]-ethoxy}-ethoxy)-acetyl; Aib at 27; C-terminal amide
B7: SEQ ID NO: 18 (peptide)
peptide: B2 peptide with A28S, X29T
modifications: D-Ser at 2; Lys 14 side chain K(γE-γE-x53) = (S)-4-Carboxy-4-((S)-4-carboxy-4-hexadecanoylamino-butyrylamino)-butyryl-; Aib at 27; C-terminal amide
B8: SEQ ID NO: 25 (peptide)
peptide: B2 peptide with A28K
modifications: D-Ser at 2; Lys 14 side chain K(γE-x70) = (S)-4-Carboxy-4-octadecanoylamino-butyryl-; Aib at 27; D-Ala at 29; C-terminal amide
B9: SEQ ID NO: 22 (peptide)
peptide: B2 peptide with X29G
modifications: D-Ser at 2; Lys 14 side chain K(AEEAc-AEEAc-AEEAc-x70) = [2-(2-{2-[2-(2-{2-[2-(2-Octadecanoylamino-ethoxy)-ethoxy]-acetylamino}-ethoxy)-ethoxy]-acetylamino}-ethoxy)-ethoxy]-acetyl-; Aib at 27; C-terminal amide
B10: SEQ ID NO: 24 (peptide)
peptide: B2 peptide with A28K
modifications: D-Ser at 2; Lys 14 side chain K(γE-γE-x53) = (S)-4-Carboxy-4-((S)-4-carboxy-4-hexadecanoylamino-butyrylamino)-butyryl-; Aib at 27; D-Ala at 29; C-terminal amide
B11: SEQ ID NO: 15 (peptide)
peptide: B2 peptide with A28S, X29G
modifications: D-Ser at 2; Lys 14 side chain K(γE-γE-x53) = (S)-4-Carboxy-4-((S)-4-carboxy-4-hexadecanoylamino-butyrylamino)-butyryl-; Aib at 27; C-terminal amide
B12: SEQ ID NO: 19 (peptide)
peptide: B2 peptide with A28K, X29G
modifications: D-Ser at 2; Lys 14 side chain K(γE-γE-x53) = (S)-4-Carboxy-4-((S)-4-carboxy-4-hexadecanoylamino-butyrylamino)-butyryl-; Aib at 27; C-terminal amide
B13: SEQ ID NO: 26 (peptide)
peptide: H[dS]HGTFTSDLSKQK([γGlu-γGlu-Palmitoyl])DEEAARLFIEWL[Aib]K[dA]GPSSGAPPPS-NH2
B14: SEQ ID NO: 17 (peptide)
peptide: H[dS]QGTFTSDLSKQK([γGlu-γGlu-Palmitoyl])DEEAVRLFIEWL[Aib]AGGPSSGAPPPS-NH2
modifications: N-terminus assumed
SMILES: CCCCCCCCCCCCCCCC(=O)N[C@@H](CCC(=O)N[C@@H](CCC(=O)NCCCC[C@H](NC(=O)[C@H](CCC(N)=O)NC(=O)[C@H](CCCCN)NC(=O)[C@H](CO)NC(=O)[C@H](CC(C)C)NC(=O)[C@H](CC(=O)O)NC(=O)[C@H](CO)NC(=O)[C@@H](NC(=O)[C@H](Cc1ccccc1)NC(=O)[C@@H](NC(=O)CNC(=O)[C@H](CCC(N)=O)NC(=O)[C@@H](CO)NC(=O)[C@@H](N)Cc1c[nH]cn1)[C@@H](C)O)[C@@H](C)O)C(=O)N[C@@H](CC(=O)O)C(=O)N[C@@H](CCC(=O)O)C(=O)N[C@@H](CCC(=O)O)C(=O)N[C@@H](C)C(=O)N[C@H](C(=O)N[C@@H](CCCNC(=N)N)C(=O)N[C@@H](CC(C)C)C(=O)N[C@@H](Cc1ccccc1)C(=O)N[C@H](C(=O)N[C@@H](CCC(=O)O)C(=O)N[C@@H](Cc1c[nH]c2ccccc12)C(=O)N[C@@H](CC(C)C)C(=O)NC(C)(C)C(=O)N[C@@H](C)C(=O)NCC(=O)NCC(=O)N1CCC[C@H]1C(=O)N[C@@H](CO)C(=O)N[C@@H](CO)C(=O)NCC(=O)N[C@@H](C)C(=O)N1CCC[C@H]1C(=O)N1CCC[C@H]1C(=O)N1CCC[C@H]1C(=O)N[C@@H](CO)C(N)=O)[C@@H](C)CC)C(C)C)C(=O)O)C(=O)O
B15: SEQ ID NO: 8 (peptide)
peptide: H[dS]HGTFTSDLSKQK([γGlu-Stearoyl])DEEAARLFIEWL[Aib]AGGPSSGAPPPS-NH2
modifications: N-terminus assumed
SMILES: CCCCCCCCCCCCCCCCCC(=O)N[C@@H](CCC(=O)NCCCC[C@H](NC(=O)[C@H](CCC(N)=O)NC(=O)[C@H](CCCCN)NC(=O)[C@H](CO)NC(=O)[C@H](CC(C)C)NC(=O)[C@H](CC(=O)O)NC(=O)[C@H](CO)NC(=O)[C@@H](NC(=O)[C@H](Cc1ccccc1)NC(=O)[C@@H](NC(=O)CNC(=O)[C@H](Cc1c[nH]cn1)NC(=O)[C@@H](CO)NC(=O)[C@@H](N)Cc1c[nH]cn1)[C@@H](C)O)[C@@H](C)O)C(=O)N[C@@H](CC(=O)O)C(=O)N[C@@H](CCC(=O)O)C(=O)N[C@@H](CCC(=O)O)C(=O)N[C@@H](C)C(=O)N[C@@H](C)C(=O)N[C@@H](CCCNC(=N)N)C(=O)N[C@@H](CC(C)C)C(=O)N[C@@H](Cc1ccccc1)C(=O)N[C@H](C(=O)N[C@@H](CCC(=O)O)C(=O)N[C@@H](Cc1c[nH]c2ccccc12)C(=O)N[C@@H](CC(C)C)C(=O)NC(C)(C)C(=O)N[C@@H](C)C(=O)NCC(=O)NCC(=O)N1CCC[C@H]1C(=O)N[C@@H](CO)C(=O)N[C@@H](CO)C(=O)NCC(=O)N[C@@H](C)C(=O)N1CCC[C@H]1C(=O)N1CCC[C@H]1C(=O)N1CCC[C@H]1C(=O)N[C@@H](CO)C(N)=O)[C@@H](C)CC)C(=O)O
B16: SEQ ID NO: 10 (peptide)
peptide: H[dS]QGTFTSDLSKQK([γGlu-Stearoyl])EEEAVRLFIEWL[Aib]AGGPSSGAPPPS-NH2
modifications: N-terminus assumed
SMILES: CCCCCCCCCCCCCCCCCC(=O)N[C@@H](CCC(=O)NCCCC[C@H](NC(=O)[C@H](CCC(N)=O)NC(=O)[C@H](CCCCN)NC(=O)[C@H](CO)NC(=O)[C@H](CC(C)C)NC(=O)[C@H](CC(=O)O)NC(=O)[C@H](CO)NC(=O)[C@@H](NC(=O)[C@H](Cc1ccccc1)NC(=O)[C@@H](NC(=O)CNC(=O)[C@H](CCC(N)=O)NC(=O)[C@@H](CO)NC(=O)[C@@H](N)Cc1c[nH]cn1)[C@@H](C)O)[C@@H](C)O)C(=O)N[C@@H](CCC(=O)O)C(=O)N[C@@H](CCC(=O)O)C(=O)N[C@@H](CCC(=O)O)C(=O)N[C@@H](C)C(=O)N[C@H](C(=O)N[C@@H](CCCNC(=N)N)C(=O)N[C@@H](CC(C)C)C(=O)N[C@@H](Cc1ccccc1)C(=O)N[C@H](C(=O)N[C@@H](CCC(=O)O)C(=O)N[C@@H](Cc1c[nH]c2ccccc12)C(=O)N[C@@H](CC(C)C)C(=O)NC(C)(C)C(=O)N[C@@H](C)C(=O)NCC(=O)NCC(=O)N1CCC[C@H]1C(=O)N[C@@H](CO)C(=O)N[C@@H](CO)C(=O)NCC(=O)N[C@@H](C)C(=O)N1CCC[C@H]1C(=O)N1CCC[C@H]1C(=O)N1CCC[C@H]1C(=O)N[C@@H](CO)C(N)=O)[C@@H](C)CC)C(C)C)C(=O)O
B17: SEQ ID NO: 33 (peptide)
peptide: H-HSQGTFTSDLSKQK([γGlu-γGlu-Palmitoyl])DEEAARLFIEWLKAGGPSSGAPPPS-NH2

How the values were obtained:
Assay in all cases: cell-based or functional assay
human GLP-1 receptor [1] = molecular target: T2, human GLP-1 receptor (human, UniProt P43220 24-463)
human GIP receptor [2] = molecular target: T1, human GIP receptor
human glucagon receptor [3] = molecular target: T3, human glucagon receptor (human, UniProt P47871 26-477)
T3 sequence (P47871 26-477): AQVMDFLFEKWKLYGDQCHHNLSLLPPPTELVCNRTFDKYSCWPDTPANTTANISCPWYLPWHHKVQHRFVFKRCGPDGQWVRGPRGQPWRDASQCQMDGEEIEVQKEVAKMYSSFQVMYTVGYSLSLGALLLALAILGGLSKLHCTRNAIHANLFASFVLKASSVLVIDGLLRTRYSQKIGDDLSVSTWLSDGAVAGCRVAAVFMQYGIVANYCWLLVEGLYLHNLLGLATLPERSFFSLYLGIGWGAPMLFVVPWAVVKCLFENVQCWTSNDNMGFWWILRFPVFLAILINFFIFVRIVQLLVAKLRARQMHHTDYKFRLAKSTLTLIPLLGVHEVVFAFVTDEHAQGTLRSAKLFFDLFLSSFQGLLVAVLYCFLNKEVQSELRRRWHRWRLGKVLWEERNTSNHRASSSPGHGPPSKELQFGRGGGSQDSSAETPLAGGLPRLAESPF

human GLP-1 receptor [4] = molecular target: T2, human GLP-1 receptor; remark: listed apart in the source
human GIP receptor [5] = molecular target: T1, human GIP receptor; remark: listed apart in the source
human glucagon receptor [6] = molecular target: T3, human glucagon receptor; remark: listed apart in the source

Binder | EC50 hGLP-1R (human GLP-1 receptor [1]) | EC50 hGIP-R (human GIP receptor [2]) | EC50 hGlucagon-R (human glucagon receptor [3]) | EC50 hGLP-1R (human GLP-1 receptor [4]) | EC50 hGIP-1 (human GIP receptor [5]) | EC50 hGlucagon-R (human glucagon receptor [6])
B1 | 0.0021 nM | 3.22 nM | 0.0554 nM | – | – | –
B2 | 0.0028 nM | 0.336 nM | 0.066 nM | – | – | –
B3 | – | – | – | 0.0009 nM | 0.112 nM | 0.0026 nM
B4 | – | – | – | 0.0008 nM | 0.0778 nM | 0.0051 nM
B5 | 0.001 nM | 2.45 nM | 0.0091 nM | – | – | –
B6 | 0.0043 nM | 20.2 nM | 0.0884 nM | – | – | –
B7 | 0.0036 nM | 27.5 nM | 0.0103 nM | – | – | –
B8 | 0.0021 nM | 8.32 nM | 0.0432 nM | – | – | –
B9 | 0.0018 nM | 4.16 nM | 0.0064 nM | – | – | –
B10 | 0.0024 nM | 14.1 nM | 0.0765 nM | – | – | –
B11 | 0.0018 nM | 5.5 nM | 0.0123 nM | – | – | –
B12 | 0.002 nM | – | – | – | – | –
B13 | 0.002 nM | 5.53 nM | 0.0406 nM | – | – | –
B14 | 0.0024 nM | 7.08 nM | 0.0471 nM | – | – | –
B15 | 0.0018 nM | 0.538 nM | 0.0048 nM | – | – | –
B16 | 0.0065 nM | 0.982 nM | 0.14 nM | – | – | –
B17 | – | – | – | 0.001 nM | 0.0708 nM | 0.0014 nM
